Test results reported in patent publication US20080311122A1, “Antagonists of Hmgb1 and/or Rage and Methods of Use Thereof” (Medimmune, LLC, priority 2005, published 2008).

Legend:
[1] = target: HMG1 purified from bovine (calf) thymus (bovine) (UniProt P10103); experiment: cell-based or functional assay
[2] = target: HMGB1 in DNA immune complexes of human lupus plasma (human) (UniProt P09429); experiment: cell-based or functional assay
HMGB1 in DNA immune complexes of human lupus plasma (human), sequence (P09429 whole entry, one chain of several): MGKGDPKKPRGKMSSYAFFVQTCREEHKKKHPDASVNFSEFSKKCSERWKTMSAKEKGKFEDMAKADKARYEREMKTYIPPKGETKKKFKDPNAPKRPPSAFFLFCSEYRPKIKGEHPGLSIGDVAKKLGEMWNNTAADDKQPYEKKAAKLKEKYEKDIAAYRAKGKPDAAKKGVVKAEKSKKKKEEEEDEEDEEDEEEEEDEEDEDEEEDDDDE

HMG1 purified from bovine (calf) thymus (bovine), sequence (P10103 2-215 limits assumed): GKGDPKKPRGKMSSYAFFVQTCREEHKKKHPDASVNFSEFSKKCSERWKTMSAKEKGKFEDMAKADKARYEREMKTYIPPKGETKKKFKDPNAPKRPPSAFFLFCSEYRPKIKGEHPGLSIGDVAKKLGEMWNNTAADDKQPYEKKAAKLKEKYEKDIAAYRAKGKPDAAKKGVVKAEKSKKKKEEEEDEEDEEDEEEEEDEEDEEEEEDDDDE

RAGE-Fc fusion protein (species not stated)
IFN-a release from mouse bone marrow cells, HMGB/CpG-A mediated enhanced TLR9 signaling [1]: > 95%
decrease in IFIT1 mRNA in human PBMC stimulated with 20% lupus plasma [2]: 75%
